Assay results reported in publication PMC6973309.
Like-named read-outs stand apart in the source and are kept apart here.

Key:
human CX3CR1 (human) [1] = target: human CX3CR1 (human) (UniProt P49238); experiment: flow cytometry on cells
human CX3CR1 (human) [2] = target: human CX3CR1 (human) (UniProt P49238); experiment: flow cytometry on cells; remark: listed apart in the source
human CX3CR1 (human) [3] = target: human CX3CR1 (human) (UniProt P49238)

Chain of human CX3CR1 (human) (P49238 whole entry): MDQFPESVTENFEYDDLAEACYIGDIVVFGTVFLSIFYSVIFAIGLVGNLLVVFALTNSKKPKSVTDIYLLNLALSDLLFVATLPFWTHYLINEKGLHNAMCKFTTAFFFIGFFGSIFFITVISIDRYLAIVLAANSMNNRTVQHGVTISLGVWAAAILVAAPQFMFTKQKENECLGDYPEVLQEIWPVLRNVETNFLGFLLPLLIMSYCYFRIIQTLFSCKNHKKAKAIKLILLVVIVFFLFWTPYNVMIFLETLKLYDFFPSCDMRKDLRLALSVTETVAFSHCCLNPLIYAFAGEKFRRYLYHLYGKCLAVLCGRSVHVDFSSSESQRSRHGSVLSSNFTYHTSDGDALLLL

Row | IC50 (human CX3CR1 (human) [1]) | IC50 (human CX3CR1 (human) [2]) | Chemotaxis IC50 (blocks m3 with m1) (human CX3CR1 (human) [3]) | Ligand Internalization IC50 (blocks m3 with m1) (human CX3CR1 (human) [3]) | Substance
1 | 1.6 nM | 0.4 nM | 2.7 nM | 0.33 nM | BI 655088 (VHH)
2 | – | 0.7 nM | 3 nM | 0.37 nM | BI 655089 (Fc fusion)
